Here are results for 54 substances from the supplement of paper PMC12042874.

± gives the uncertainty stated by the source.

A short description of the data set: amyloid nucleation score (Sup35N fusion, yeast selection) (log enrichment); library NNK3; higher = more nucleation; inactive = no reads after selection. In a few lines: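 Libraries of peptides of 20 random codons fused to Sup35N were expressed in psi-negative yeast and induced 24 hours with 100 μM copper sulfate. Selection was 7 days at 30°C on medium lacking adenine and uracil, and plasmid inserts were Illumina-sequenced before and after selection. Nucleation score is the DiMSum log enrichment of output over input reads, centred on the mode score of non-aggregating sequences, and sequences with under 100 input reads were left out.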
Turning to HLGKRNEKNTVLARLNFGQ, the amyloid nucleation score result was “inactive”.

For KALWCGYE, the amyloid nucleation score result is “inactive”.

On to CLKSA, for which the amyloid nucleation score is -0.912 ± 0.93.

CVIPRQIYWWCYRSTGRLIL: the amyloid nucleation score result was “inactive”. Under KNIKTSIIYSYYALIIR stands 2.47 ± 0.074; under QYANVGSCVCDRIIRCFYGW, “inactive”; under NRPLNIAAVLY, “inactive”. As for SSLLYIDRIVLSRTVIPMLL, the entry is “inactive”. With LPAGVFTDSACVVVSANKAT, the amyloid nucleation score entry is “inactive”. Under QLYSHNRYTLGYTMLSRFVS stands “inactive”. Under GDFSSCL stands “inactive”; under SKAMLTVA, “inactive”; under WCAISICQLLKRQWYLGSYV, “inactive”.

Consider CNYPKFHWLGRSVIKFIDFL, for which the amyloid nucleation score entry is “inactive”. Under HPGFTWY stands “inactive”; under QSCVIVLKIGFWDVHSSMTF, 0.426 ± 0.19. As for VVMWQRRLRYGPKERNNGKV, the figure is -0.067 ± 0.4. With DAKKVCFGIKEDCWR, the amyloid nucleation score entry is “inactive”. As to NYCDIYQGSNIF, the amyloid nucleation score result is “inactive”. Regarding FLVGPPNL, the amyloid nucleation score result was “inactive”.

Consider KCWPIVCNLWNREWQCSLIR, for which the amyloid nucleation score result is “inactive”.

Turning to CLLNGDLHVEGWTLV, the amyloid nucleation score result was “inactive”. As for FMNKLGDFNLP, the entry is “inactive”; as for HCSYCVVSE, “inactive”; as for ICGMLR, “inactive”. As for RYSLCCYGGFFRYSRDFMRR, the figure is 1.14 ± 0.14. With VGPALNVVSWELV, the amyloid nucleation score result was “inactive”.

As for WSKVSHPYSALYSIMDRYT, the amyloid nucleation score result is “inactive”. Turning to KCSFFMFAVEKEAKNWMVTN, the amyloid nucleation score result is “inactive”.

Turning to HLGFF, the amyloid nucleation score result is “inactive”. For YIFGNFRHTSGGYCVLSVLK, the amyloid nucleation score result is “inactive”. Under LCYNVKSVCGQTMLQLVE stands “inactive”.

Turning to VNCWTNYRYQGSDFIMSYIR, the amyloid nucleation score entry is “inactive”. For the substance ERQFMFYKVTVVIPTSHLCS, the amyloid nucleation score entry was “inactive”. Regarding SSKSSRLNMTVFSKTVMTIM, the amyloid nucleation score result is “inactive”. Under CWTMVASVTCYIVLLARWK stands “inactive”; under RFSWNENVGVDGQHLPEVER, “inactive”; under VCSVFLLLCANRLRVGGNYI, “inactive”. Under TKDIMHTSSLVRWTHREAWC stands “inactive”.

Turning to VFVDLPRARG, the amyloid nucleation score is 0.499 ± 0.32. Under SAFCCRSMSGVEFLRAFVSK stands “inactive”. PNKDSLWDPFKQQSRSEK displayed an amyloid nucleation score of -0.455 ± 0.93.

Regarding MMCPLKLWYHVWFSGYTL, the amyloid nucleation score entry was “inactive”. Under YFIALCINSDKPPVHGVAVV stands “inactive”; under WCHLFLFMCTSSLFSGWDDG, “inactive”. Under DYQTHLCSEGLALLMRKGSR stands “inactive”; under KLVVNSKPYMNYVSVDEIIM, “inactive”; under FVFSRNG, “inactive”. Under WAKNHPDLIMLIFADTISYN stands 2.31 ± 0.058. On to NWVQSSMNQ, for which the amyloid nucleation score entry was “inactive”.

As for LFRVDRPTNCGPYFAYHEYT, the amyloid nucleation score result was “inactive”. Under ALSVSSLALANDDVTG stands “inactive”. As for CRSLSLTSGIKF, the amyloid nucleation score entry was “inactive”. As for VFDCYHRTGVMETVCWNVFG, the entry is “inactive”.
